Experiments:
Type in all cases: binding
Details in all cases: result in words
[1] = biological target: T1, human Ramos lymphoma cells (CD39) (Homo sapiens, UniProt P49961); test: Antibody titration on Ramos cells by flow cytometry
T1 construct: host or cells: Ramos human lymphoma cells
T1 sequence (P49961 1-510): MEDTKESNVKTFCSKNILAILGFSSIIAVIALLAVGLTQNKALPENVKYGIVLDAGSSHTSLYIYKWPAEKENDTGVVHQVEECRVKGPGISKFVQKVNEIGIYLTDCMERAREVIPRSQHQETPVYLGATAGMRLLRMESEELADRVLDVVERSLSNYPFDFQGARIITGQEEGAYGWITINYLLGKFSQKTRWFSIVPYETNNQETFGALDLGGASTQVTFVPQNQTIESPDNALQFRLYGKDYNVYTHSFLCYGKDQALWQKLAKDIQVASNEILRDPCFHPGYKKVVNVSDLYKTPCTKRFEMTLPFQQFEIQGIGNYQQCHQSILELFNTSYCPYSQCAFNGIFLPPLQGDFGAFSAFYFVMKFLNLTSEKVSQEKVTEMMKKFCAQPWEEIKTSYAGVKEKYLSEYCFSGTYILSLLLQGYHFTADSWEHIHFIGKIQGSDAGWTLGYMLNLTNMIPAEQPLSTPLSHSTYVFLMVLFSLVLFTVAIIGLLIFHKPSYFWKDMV
Protocol: Antibody I-394 was tested in two repeated experiments for binding to CHO cells expressing human CD39, CHO cells expressing cynomolgus (Macaca fascicularis) CD39, CHO cells expressing murine CD39, and human Ramos lymphoma cells (ATCC™, reference CRL-1596). Cells were incubated with various concentration of unlabeled anti-CD39 antibody from 30 μg/ml to 5×10^−4 μg/ml, for 30 minutes at 4° C. After washes, cells were incubated with Goat anti-mouse H+L labeled secondary antibody for 30 min at 4° C.

[2] = biological target: T2, human CD39 (vascular isoform) (Homo sapiens, UniProt P49961); test: ELISA titration on recombinant human CD39
T2 sequence (P49961 1-510): T1 sequence (P49961 1-510)
Protocol: (§1) Antibody I-394 was tested for binding to recombinant human CD39 isoforms (Rec-huCD39 isoforms) having amino acid sequences shown below were coated in 96-well plate in PBS 1× at 500 ng/ml or 1 μg/ml at 4° C. overnight. Wells were washed in TBS Tween 20, and further saturated 2H at RT in TBS Blocking buffer. Dose range concentration of primary antibody was incubated in TBS blocking buffer for 2 h at RT. Wells were washed in TBS Tween 20. […] Optical density was measured on Enspire™ at OD=450.

[3] = biological target: T3, Human CD39-L1 (NTPDase2, ENTPD2) (Homo sapiens, UniProt Q9Y5L3); test: ELISA titration on CD39-L1
T3 sequence (Q9Y5L3 1-472 isoform Q9Y5L3-2): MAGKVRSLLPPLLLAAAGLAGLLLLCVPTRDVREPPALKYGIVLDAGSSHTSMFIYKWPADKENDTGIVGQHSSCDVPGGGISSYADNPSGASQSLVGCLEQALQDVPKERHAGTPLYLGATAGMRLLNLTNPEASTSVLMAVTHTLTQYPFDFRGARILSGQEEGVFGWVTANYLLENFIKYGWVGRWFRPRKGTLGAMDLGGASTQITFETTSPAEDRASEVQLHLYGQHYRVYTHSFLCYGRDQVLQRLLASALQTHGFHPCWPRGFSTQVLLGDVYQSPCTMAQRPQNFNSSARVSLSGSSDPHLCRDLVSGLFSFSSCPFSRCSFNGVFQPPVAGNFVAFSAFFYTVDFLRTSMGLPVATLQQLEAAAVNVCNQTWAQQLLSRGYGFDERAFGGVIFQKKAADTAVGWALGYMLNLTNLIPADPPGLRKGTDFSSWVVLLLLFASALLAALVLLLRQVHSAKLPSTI
Protocol: as §1

[4] = biological target: T4, Human CD39-L3 (NTPDase3, ENTPD3) (Homo sapiens, UniProt O75355); test: ELISA titration on CD39-L3
T4 sequence (O75355 1-529): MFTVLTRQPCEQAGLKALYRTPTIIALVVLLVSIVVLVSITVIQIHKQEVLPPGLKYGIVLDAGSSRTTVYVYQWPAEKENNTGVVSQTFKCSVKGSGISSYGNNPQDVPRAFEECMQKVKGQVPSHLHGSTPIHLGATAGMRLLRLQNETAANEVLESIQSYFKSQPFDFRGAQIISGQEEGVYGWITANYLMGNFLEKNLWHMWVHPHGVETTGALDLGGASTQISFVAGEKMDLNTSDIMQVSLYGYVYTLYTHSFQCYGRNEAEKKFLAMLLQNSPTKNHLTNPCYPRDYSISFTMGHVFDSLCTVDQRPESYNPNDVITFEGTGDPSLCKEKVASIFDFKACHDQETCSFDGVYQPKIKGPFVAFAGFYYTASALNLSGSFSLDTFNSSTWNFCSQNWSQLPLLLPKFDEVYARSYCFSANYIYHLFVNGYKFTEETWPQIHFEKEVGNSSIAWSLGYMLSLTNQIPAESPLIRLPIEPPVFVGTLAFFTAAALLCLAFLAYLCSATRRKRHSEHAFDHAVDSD
Protocol: as §1

[5] = biological target: T5, Human CD39-L4 (NTPDase5, ENTPD5) (Homo sapiens, UniProt O75356); test: ELISA titration on CD39-L4
T5 sequence (O75356 25-428): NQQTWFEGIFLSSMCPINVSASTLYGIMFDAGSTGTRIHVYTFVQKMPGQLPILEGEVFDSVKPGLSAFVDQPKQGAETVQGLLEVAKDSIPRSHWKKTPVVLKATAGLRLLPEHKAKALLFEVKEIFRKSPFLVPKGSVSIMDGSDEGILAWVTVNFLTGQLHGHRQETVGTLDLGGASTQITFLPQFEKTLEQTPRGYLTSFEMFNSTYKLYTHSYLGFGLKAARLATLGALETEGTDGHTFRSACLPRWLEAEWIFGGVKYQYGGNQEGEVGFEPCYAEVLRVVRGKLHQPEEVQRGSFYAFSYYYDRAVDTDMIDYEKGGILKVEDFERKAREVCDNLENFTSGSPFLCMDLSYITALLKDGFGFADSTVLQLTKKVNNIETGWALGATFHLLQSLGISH
Protocol: as §1

binding to Ramos lymphoma cells [1]: bound
binding to CD39 in ELISA [2]: bound
binding to CD39-L1 in ELISA [3]: not
binding to CD39-L3 in ELISA [4]: not
binding to CD39-L4 in ELISA [5]: not
Substance: I-394: anti-CD39 antibody, VH SEQ ID NO: 6, VL SEQ ID NO: 7; human IgG1 Fc with L234A/L235E/G237A/A330S/P331S

Reference: US11578136B2, “Compositions and methods for treating cancer” (INNATE PHARMA, priority 2017, dated 2023)
